In patent publication US20260234610, “NOVEL CAS12A PROTEIN, VARIANT OF NOVEL CAS12A PROTEIN, AND USE THEREOF FOR EUKARYOTIC GENOME EDITING” (NSAGE CORP., published 2026):
Substitutions are numbered along the chain they refer to.

T1: ID233 Cas12a
T1 chain: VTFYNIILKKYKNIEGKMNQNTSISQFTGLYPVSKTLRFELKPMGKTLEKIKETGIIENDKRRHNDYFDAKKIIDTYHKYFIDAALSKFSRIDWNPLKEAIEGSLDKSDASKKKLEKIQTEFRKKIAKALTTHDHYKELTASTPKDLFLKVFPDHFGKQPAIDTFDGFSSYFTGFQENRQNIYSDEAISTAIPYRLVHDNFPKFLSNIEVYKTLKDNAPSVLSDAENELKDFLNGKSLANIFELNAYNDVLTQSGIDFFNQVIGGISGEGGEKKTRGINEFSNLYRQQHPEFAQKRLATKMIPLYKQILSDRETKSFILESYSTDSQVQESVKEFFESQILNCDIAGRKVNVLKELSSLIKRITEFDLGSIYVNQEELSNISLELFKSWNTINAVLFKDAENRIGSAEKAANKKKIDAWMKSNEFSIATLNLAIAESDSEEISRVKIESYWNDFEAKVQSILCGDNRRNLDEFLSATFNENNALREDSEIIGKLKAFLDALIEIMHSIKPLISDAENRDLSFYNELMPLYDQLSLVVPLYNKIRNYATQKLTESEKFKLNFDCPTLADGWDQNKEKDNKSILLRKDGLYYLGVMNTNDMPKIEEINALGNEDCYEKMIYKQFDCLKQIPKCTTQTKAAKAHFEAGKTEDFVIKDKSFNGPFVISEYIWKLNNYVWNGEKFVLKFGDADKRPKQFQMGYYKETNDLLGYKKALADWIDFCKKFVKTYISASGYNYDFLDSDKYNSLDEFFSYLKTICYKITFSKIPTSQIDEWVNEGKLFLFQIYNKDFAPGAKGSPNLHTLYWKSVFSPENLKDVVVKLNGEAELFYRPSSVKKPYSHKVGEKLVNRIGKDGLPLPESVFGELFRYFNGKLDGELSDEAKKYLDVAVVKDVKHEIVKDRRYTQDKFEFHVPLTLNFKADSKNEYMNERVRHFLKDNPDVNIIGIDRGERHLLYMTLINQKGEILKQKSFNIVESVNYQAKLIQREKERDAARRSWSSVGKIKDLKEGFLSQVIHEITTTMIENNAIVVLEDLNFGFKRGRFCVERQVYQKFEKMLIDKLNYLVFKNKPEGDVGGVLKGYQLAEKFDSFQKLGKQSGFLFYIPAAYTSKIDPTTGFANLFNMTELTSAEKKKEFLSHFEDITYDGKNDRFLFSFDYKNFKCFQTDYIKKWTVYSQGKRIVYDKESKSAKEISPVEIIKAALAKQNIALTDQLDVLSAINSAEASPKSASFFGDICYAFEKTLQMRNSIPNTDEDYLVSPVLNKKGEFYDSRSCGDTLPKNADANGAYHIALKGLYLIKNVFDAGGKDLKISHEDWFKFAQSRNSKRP

T2: ID236 Cas12a
T2 chain: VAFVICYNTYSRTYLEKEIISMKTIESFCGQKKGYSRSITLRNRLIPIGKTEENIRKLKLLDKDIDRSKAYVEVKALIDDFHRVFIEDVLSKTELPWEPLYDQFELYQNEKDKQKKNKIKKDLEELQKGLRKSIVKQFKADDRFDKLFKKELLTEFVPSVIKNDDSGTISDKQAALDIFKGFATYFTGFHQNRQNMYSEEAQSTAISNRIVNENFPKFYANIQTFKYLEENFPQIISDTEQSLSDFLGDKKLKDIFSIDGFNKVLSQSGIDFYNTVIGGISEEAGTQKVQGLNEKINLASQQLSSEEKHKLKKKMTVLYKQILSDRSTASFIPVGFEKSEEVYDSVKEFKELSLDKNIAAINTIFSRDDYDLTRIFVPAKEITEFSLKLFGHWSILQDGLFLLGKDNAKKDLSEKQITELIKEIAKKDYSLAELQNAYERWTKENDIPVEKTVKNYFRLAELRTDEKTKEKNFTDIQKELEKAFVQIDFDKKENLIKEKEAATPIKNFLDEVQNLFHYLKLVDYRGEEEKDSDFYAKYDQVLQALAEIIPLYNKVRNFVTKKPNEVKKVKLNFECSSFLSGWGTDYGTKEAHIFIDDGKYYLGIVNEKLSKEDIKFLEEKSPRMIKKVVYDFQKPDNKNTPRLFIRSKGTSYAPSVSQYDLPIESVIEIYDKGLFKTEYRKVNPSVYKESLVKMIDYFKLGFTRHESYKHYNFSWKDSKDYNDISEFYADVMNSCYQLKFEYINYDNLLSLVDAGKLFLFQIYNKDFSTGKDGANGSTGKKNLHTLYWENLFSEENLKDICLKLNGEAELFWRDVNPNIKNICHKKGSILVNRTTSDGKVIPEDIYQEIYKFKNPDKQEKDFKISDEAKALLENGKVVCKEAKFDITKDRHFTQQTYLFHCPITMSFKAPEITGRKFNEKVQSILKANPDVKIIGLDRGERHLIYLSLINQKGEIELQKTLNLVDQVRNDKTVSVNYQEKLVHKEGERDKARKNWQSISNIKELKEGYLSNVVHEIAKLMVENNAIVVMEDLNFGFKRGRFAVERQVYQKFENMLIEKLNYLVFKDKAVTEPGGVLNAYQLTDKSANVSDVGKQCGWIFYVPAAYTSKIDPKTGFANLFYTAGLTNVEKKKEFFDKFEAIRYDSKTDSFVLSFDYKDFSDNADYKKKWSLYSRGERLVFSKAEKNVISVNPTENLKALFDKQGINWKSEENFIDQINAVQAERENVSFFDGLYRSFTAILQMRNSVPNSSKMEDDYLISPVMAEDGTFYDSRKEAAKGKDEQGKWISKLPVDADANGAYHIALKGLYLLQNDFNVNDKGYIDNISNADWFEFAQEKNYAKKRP

B1: 218 crRNA MTAP ; MTAP target (ssRNA ; dsDNA)
RNA: UAAUUUCUACUAAGUGUAGAUGCCCCAAUAAUCCCCACAUGUCA
DNA 1: GCCCCAATAATCCCCACATGTCA
DNA 2: TGACATGTGGGGATTATTGGGGC
B2: 218 crRNA DYRK1A ; DYRK1A target (ssRNA ; dsDNA)
RNA: UAAUUUCUACUAAGUGUAGAUGAAGCACAUCAAGGACAUUCUAA
DNA 1: GAAGCACATCAAGGACATTCTAA
DNA 2: TTAGAATGTCCTTGATGTGCTTC
B3: 233 crRNA DYRK1A ; DYRK1A target (ssRNA ; dsDNA)
RNA: AAAAUUUCUACUCUUGUAGAUGAAGCACAUCAAGGACAUUCUAA
DNA 1: GAAGCACATCAAGGACATTCTAA
DNA 2: TTAGAATGTCCTTGATGTGCTTC
B4: 236 crRNA DYRK1A ; DYRK1A target (ssRNA ; dsDNA)
RNA: B3 RNA with A1U, C13G
DNA 1: GAAGCACATCAAGGACATTCTAA
DNA 2: TTAGAATGTCCTTGATGTGCTTC
B5: 233 crRNA MTAP ; MTAP target (ssRNA ; dsDNA)
RNA: AAAAUUUCUACUCUUGUAGAUGCCCCAAUAAUCCCCACAUGUCA
DNA 1: GCCCCAATAATCCCCACATGTCA
DNA 2: TGACATGTGGGGATTATTGGGGC
B6: 236 crRNA MTAP ; MTAP target (ssRNA ; dsDNA)
RNA: B5 RNA with A1U, C13G
DNA 1: GCCCCAATAATCCCCACATGTCA
DNA 2: TGACATGTGGGGATTATTGGGGC

How the values were obtained:
Test in all cases: cell_activity; PAM TTTV/TTTN; RNP in HEK293T
Settings in all cases: tags: NLS, His6
[1] = molecular target: ID218 Cas12a
Method: (§1) To confirm the in vivo gene editing activity of the CRISPR enzymes according to Experimental Example 4.1, the following experiments were performed: [0474] 1) CRISPR/Cas12a complexes were assembled according to Experimental Example 1.5 using CRISPR enzymes prepared according to Experimental Example 4.1 and guide RNAs. [0475] 2) The CRISPR/Cas12a complexes assembled in 1) were transfected into HEK293T cells according to Experimental Example 1.8, and gene editing activity was measured.

[2] = molecular target: T1, ID233 Cas12a
Method: as §1

[3] = molecular target: T2, ID236 Cas12a
Method: as §1

Binder | activity [1] [% indel] | activity [2] [% indel] | activity [3] [% indel]
B1 | 90.4 | – | –
B2 | 71 | – | –
B3 | – | 12.2 | –
B4 | – | – | 5.2
B5 | – | 14.8 | –
B6 | – | – | 17
